System: S-adenosylmethionine synthetase
Test: S-adenosylmethionine synthetase (MAT) activity in vitro in crude extracts, FIA-MS/MS
Format: biochemical, E. coli
Conditions: 10 mM methionine, 10 mM ATP, 37° C., 30 minutes

B1: MetK* S273F (protein, UniProt P0A817 2-384, looked up, variant S273F)
S-adenosylmethionine synthase: AKHLFTSESVSEGHPDKIADQISDAVLDAILEQDPKARVACETYVKTGMVLVGGEITTSAWVDIEEITRNTVREIGYVHSDMGFDANSCAVLSAIGKQSPDINQGVDRADPLEQGAGDQGLMFGYATNETDVLMPAPITYAHRLVQRQAEVRKNGTLPWLRPDAKSQVTFQYDDGKIVGIDAVVLSTQHSEEIDQKSLQEAVMEEIIKPILPAEWLTSATKFFINPTGRFVIGGPMGDCGLTGRKIIVDTYGGMARHGGGAFSGKDPSKVDRFAAYAARYVAKNIVAAGLADRCEIQVSYAIGVAEPTSIMVETFGTEKVPSEQLTLLVREFFDLRPYGLIQMLDLLHPIYKETAAYGHFGREHFPWEKTDKAQLLRDAAGLK
With B1 the “MAT (S-adenosylmethionine synthetase activity)” value was 2.2 mUI/mg prot.
